Test results taken from article PMC5793033 (ACS Omega, 2018).

Biological target: the molecule itself

B1: NgDapB (4-hydroxy-tetrahydrodipicolinate reductase from Neisseria gonorrhoeae) (enzyme, UniProt B4RR35 1-269, looked up)
chain: MIPLKIAIAGANGRMGRVLVEAVNNHPDTVLSGALEHSGSEALGLDAGYAVGLKTGIAISDDVDAVLAQSDVLIDFTRPEPTLKHLQKCVEKQVNIIIGTTGFDDAGKAAIRAAAEKTGIVFAANFSVGVNLTFHILDTVARVLNEGYDIEIIEGHHRHKVDAPSGTALRMGEVIAGALGRDLKQCAVYGREGHTGPRDPSTIGFATVRAGDIVGDHTALFATDGERVEITHKAGSRMTFAAGAVRAAVWVNGKTGLYDMQDVLGLNNR
For B1, the “stoichiometry N” value was 4.
